Consider 1 molecule from PMC7291361 (ACS infectious diseases, 2020).

This assay concerns the target H4 NB-10 HA full length soluble ectodomain (FLsE) (Influenza A virus A/American black …, UniProt M1UPL4, strain). Kind of assay: ELISA.

B1: K03.12 IgG (antibody, V domains shown)
VH: QVQLVQSGAEVKKPGASVKVSCKTSGYTFTAYYLHWVRQAPGQGFEWMAWINPNTGDTNYAQKFQGRVTLSRDTSITTAYMELTRLRSDDTAVYYCAKDLTLMYVFDSGWARGAHDYYGMDVWGQGTTVAVSG
VL: PSALTQPASVSGSPGQSVTISCTGTNSDVGTFDLVSWYQQYPGKAPKLIIYEGSRRPSGVSDRFSGSKSGNTASLTISGLQAEDEADYYCSSYAGSVVFGGGTKLTVL
Turning to B1, the binding result was “no binding (tested: 1 μM IgG)”.
